A word on the Kd: it is the constant that tells how readily two partners part at equilibrium.

This data set has as its system CgpS (Corynebacterium glutamicum ATCC 13032 (strain of the protein implied?)). Description: SPR. The following applies: SPR: biotinylated DNA on streptavidin chip, CgpS 180 s association, 420 s dissociation, EMSA: 14 nM DNA, buffer, salt, pH and temperature in Text S1, not in …. Background: A gel shift assay detects complexes by their altered migration in electrophoresis.

In the case of Pcg1999, the Kd was 58 nM.

As to Pcg3336 (control), the Kd (very fast dissociation) turned out to be 381 nM. Take Plys (SPR): the Kd came to 11 nM.

The values are drawn from article PMC7002338.
